Experimental data reported in publication PMC1839085, “Crystal structures of an Extracytoplasmic Solute Receptor from a TRAP transporter in its open and closed forms reveal a helix-swapped dimer requiring a cation for α-keto acid binding” (BMC Structural Biology, 2007).

B1: Selenomethionine-labeled TakP from Rhodobacter sphaeroides (natural protein, Rhodobacter sphaeroides 2.4.1)
chain: QSAPKVTWRLASSFPKSLDTIFGGAEVLSKMLSEATDGNFQIQVFSAGELVPGLQAADAVTEGTVECCHTVGYYYWGKDPTFALAAAVPFSLSARGINAWHYHGGGIDLYNEFLSQHNIVAFPGGNTGVQMGGWFRREINTVADMQGLKMRVGGFAGKVMERLGVVPQQIAGGDIYPALEKGTIDATEWVGPYDDEKLGFFKVAPYYYYPGWWEGGPTVHFMFNKSAYEGLTPTYQSLLRTACHAADANMLQLYDWKNPTAIKSLVAQGTQLRPFSPEILQACFEAANEVYAEMEASNPAFKKIWDSIKAFRSEHYTWAQIAEYNYDTFMMVQQNAGKL
modifications: selenomethionine (SeMet) labeled
notes: TakP (previously named SmoM), Rhodobacter sphaeroides 2.4.1; same construct as m1 (pET101/D-TOPO, 1099 bp fragment), labeled with selenomethionine; final model holds four molecules from residue 28 or 32 to 365; Same construct as m1, with methionines replaced by selenomethionine; used for the unliganded MAD structure (PDB 2HZK); also called SeMet TakP; selenomethionine labeled protein; source: E. …
B2: TakP (TRAP transporter alpha-keto acid binding P subunit) from Rhodobacter sphaeroides (natural protein, Rhodobacter sphaeroides 2.4.1)
chain: QSAPKVTWRLASSFPKSLDTIFGGAEVLSKMLSEATDGNFQIQVFSAGELVPGLQAADAVTEGTVECCHTVGYYYWGKDPTFALAAAVPFSLSARGINAWHYHGGGIDLYNEFLSQHNIVAFPGGNTGVQMGGWFRREINTVADMQGLKMRVGGFAGKVMERLGVVPQQIAGGDIYPALEKGTIDATEWVGPYDDEKLGFFKVAPYYYYPGWWEGGPTVHFMFNKSAYEGLTPTYQSLLRTACHAADANMLQLYDWKNPTAIKSLVAQGTQLRPFSPEILQACFEAANEVYAEMEASNPAFKKIWDSIKAFRSEHYTWAQIAEYNYDTFMMVQQNAGKL
notes: TakP (previously named SmoM), extracytoplasmic solute receptor (P subunit) of a TRAP transporter, Rhodobacter sphaeroides 2.4.1; gene amplified from genomic DNA as a 1099 bp fragment and cloned into pET101/D-TOPO; crystal models span residues 28 or 32 to 365; The 1099 bp fragment would fit the whole gene of 365 codons, so the signal peptide may be in the construct; The theoretical molecular …

Assays:
[1] = molecular target: the molecule itself; test: crystal structure; unliganded SeMet TakP, space group P2(1), four molecules in the asymmetric unit; hanging drop, 293 K, 100 mM sodium citrate pH 5.8-6.0, 1.4-1.6 M ammonium sulfate; solved by MAD
[2] = molecular target: the molecule itself; test: SEC; gel filtration on Superdex 200 26/60 in 20 mM Tris HCl pH 8.0, 50 mM NaCl, calibrated with commercial standards
[3] = molecular target: the molecule itself; test: cross-linking; 3.2 and 6.3 μM TakP with 50 mM glutaraldehyde, 20 mM Na2HPO4/KH2PO4 pH 7.8, 18°C, 3 hours; denaturing 10% Nu-PAGE gel; dimer to monomers

Protein	binding result [1]	stoichiometry N [2]	Kd [3] [nM]
B1	binds		
B2		2	< 300
